Target: gbrap_human GABARAP (UniProt O95166)
Sequence (O95166 whole entry): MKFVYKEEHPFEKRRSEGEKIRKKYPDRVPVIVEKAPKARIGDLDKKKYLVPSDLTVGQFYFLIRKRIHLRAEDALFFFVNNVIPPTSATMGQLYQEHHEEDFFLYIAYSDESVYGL

effect of a mutation on the interaction	Substance
with no effect	Pericentriolar material 1 protein (Homo sapiens), Q15154 S1955W
with no effect	Pericentriolar material 1 protein (Homo sapiens), Q15154 S1955Y
with no effect	Pericentriolar material 1 protein (Homo sapiens), Q15154 S1958A
with no effect	Pericentriolar material 1 protein (Homo sapiens), Q15154 S1958C
with no effect	Pericentriolar material 1 protein (Homo sapiens), Q15154 S1958D
with no effect	Pericentriolar material 1 protein (Homo sapiens), Q15154 S1958E
with no effect	Pericentriolar material 1 protein (Homo sapiens), Q15154 S1958F
with no effect	Pericentriolar material 1 protein (Homo sapiens), Q15154 S1958G
with no effect	Pericentriolar material 1 protein (Homo sapiens), Q15154 S1958H
with no effect	Pericentriolar material 1 protein (Homo sapiens), Q15154 S1958I
with no effect	Pericentriolar material 1 protein (Homo sapiens), Q15154 S1958K
with no effect	Pericentriolar material 1 protein (Homo sapiens), Q15154 S1958L
with no effect	Pericentriolar material 1 protein (Homo sapiens), Q15154 S1958M
with no effect	Pericentriolar material 1 protein (Homo sapiens), Q15154 S1958N
with no effect	Pericentriolar material 1 protein (Homo sapiens), Q15154 S1958P
with no effect	Pericentriolar material 1 protein (Homo sapiens), Q15154 S1958Q
with no effect	Pericentriolar material 1 protein (Homo sapiens), Q15154 S1958R
with no effect	Pericentriolar material 1 protein (Homo sapiens), Q15154 S1958T
with no effect	Pericentriolar material 1 protein (Homo sapiens), Q15154 S1958V
with no effect	Pericentriolar material 1 protein (Homo sapiens), Q15154 S1958W
with no effect	Pericentriolar material 1 protein (Homo sapiens), Q15154 S1958Y
with no effect	Pericentriolar material 1 protein (Homo sapiens), Q15154 T1974A
with no effect	Pericentriolar material 1 protein (Homo sapiens), Q15154 T1974C

effect of a mutation on the interaction	Substance
with no effect	Pericentriolar material 1 protein (Homo sapiens), Q15154 T1974D
with no effect	Pericentriolar material 1 protein (Homo sapiens), Q15154 T1974E
with no effect	Pericentriolar material 1 protein (Homo sapiens), Q15154 T1974F
with no effect	Pericentriolar material 1 protein (Homo sapiens), Q15154 T1974G
with no effect	Pericentriolar material 1 protein (Homo sapiens), Q15154 T1974H
with no effect	Pericentriolar material 1 protein (Homo sapiens), Q15154 T1974I
with no effect	Pericentriolar material 1 protein (Homo sapiens), Q15154 T1974K
with no effect	Pericentriolar material 1 protein (Homo sapiens), Q15154 T1974L
with no effect	Pericentriolar material 1 protein (Homo sapiens), Q15154 T1974M
with no effect	Pericentriolar material 1 protein (Homo sapiens), Q15154 T1974N
with no effect	Pericentriolar material 1 protein (Homo sapiens), Q15154 T1974P
with no effect	Pericentriolar material 1 protein (Homo sapiens), Q15154 T1974Q
with no effect	Pericentriolar material 1 protein (Homo sapiens), Q15154 T1974R
with no effect	Pericentriolar material 1 protein (Homo sapiens), Q15154 T1974S
with no effect	Pericentriolar material 1 protein (Homo sapiens), Q15154 T1974V
with no effect	Pericentriolar material 1 protein (Homo sapiens), Q15154 T1974W
with no effect	Pericentriolar material 1 protein (Homo sapiens), Q15154 T1974Y
disrupting interaction strength	Pericentriolar material 1 protein (Homo sapiens), Q15154 V1964A
with no effect	Pericentriolar material 1 protein (Homo sapiens), Q15154 V1964C
decreasing interaction strength	Pericentriolar material 1 protein (Homo sapiens), Q15154 V1964D
with no effect	Pericentriolar material 1 protein (Homo sapiens), Q15154 V1964E
with no effect	Pericentriolar material 1 protein (Homo sapiens), Q15154 V1964F
disrupting interaction strength	Pericentriolar material 1 protein (Homo sapiens), Q15154 V1964G

effect of a mutation on the interaction	Substance
disrupting interaction strength	Pericentriolar material 1 protein (Homo sapiens), Q15154 V1964H
with no effect	Pericentriolar material 1 protein (Homo sapiens), Q15154 V1964I
disrupting interaction strength	Pericentriolar material 1 protein (Homo sapiens), Q15154 V1964K
decreasing interaction strength	Pericentriolar material 1 protein (Homo sapiens), Q15154 V1964L
disrupting interaction strength	Pericentriolar material 1 protein (Homo sapiens), Q15154 V1964M
disrupting interaction strength	Pericentriolar material 1 protein (Homo sapiens), Q15154 V1964N
disrupting interaction strength	Pericentriolar material 1 protein (Homo sapiens), Q15154 V1964P
disrupting interaction strength	Pericentriolar material 1 protein (Homo sapiens), Q15154 V1964Q
disrupting interaction strength	Pericentriolar material 1 protein (Homo sapiens), Q15154 V1964R
disrupting interaction strength	Pericentriolar material 1 protein (Homo sapiens), Q15154 V1964S
disrupting interaction strength	Pericentriolar material 1 protein (Homo sapiens), Q15154 V1964T
disrupting interaction strength	Pericentriolar material 1 protein (Homo sapiens), Q15154 V1964W
decreasing interaction strength	Pericentriolar material 1 protein (Homo sapiens), Q15154 V1964Y
disrupting interaction strength	Pericentriolar material 1 protein (Homo sapiens), Q15154 V1966A
disrupting interaction strength	Pericentriolar material 1 protein (Homo sapiens), Q15154 V1966C
disrupting interaction strength	Pericentriolar material 1 protein (Homo sapiens), Q15154 V1966D
disrupting interaction strength	Pericentriolar material 1 protein (Homo sapiens), Q15154 V1966E
with no effect	Pericentriolar material 1 protein (Homo sapiens), Q15154 V1966F
disrupting interaction strength	Pericentriolar material 1 protein (Homo sapiens), Q15154 V1966G
disrupting interaction strength	Pericentriolar material 1 protein (Homo sapiens), Q15154 V1966H
with no effect	Pericentriolar material 1 protein (Homo sapiens), Q15154 V1966I
disrupting interaction strength	Pericentriolar material 1 protein (Homo sapiens), Q15154 V1966K
with no effect	Pericentriolar material 1 protein (Homo sapiens), Q15154 V1966L

Reference: IntAct's records for PubMed 28712572
